From patent US20150353909

Tests used:
[1] = target: HA3-SUMO-GST (UniProt P55852)
[2] = system: purified recombinant linear UB tetramers
[3] = system: HA3-UBQ-GST [GST: P08515]
[4] = target: HA3-RUB-GST (UniProt Q9SHE7)
[5] = system: purified recombinant linear UB dimers
[6] = system: purified recombinant linear UB trimers
[7] = target: K63-tetraubiquitin chains (UniProt P0CG48)
[8] = target: K48-tetraubiquitin chains (UniProt P0CG48)

Measured: in vitro deubiquitylation activity

Chain of His-tagged OTU12 (Q9SGA5 whole entry): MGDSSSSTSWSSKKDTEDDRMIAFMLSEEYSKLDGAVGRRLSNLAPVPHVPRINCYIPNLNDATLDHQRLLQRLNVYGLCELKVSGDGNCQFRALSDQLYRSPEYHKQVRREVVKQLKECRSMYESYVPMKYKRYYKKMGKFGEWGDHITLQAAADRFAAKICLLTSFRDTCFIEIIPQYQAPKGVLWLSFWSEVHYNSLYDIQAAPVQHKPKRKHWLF
Chain of His-tagged OTU11a (Q0V869 whole entry): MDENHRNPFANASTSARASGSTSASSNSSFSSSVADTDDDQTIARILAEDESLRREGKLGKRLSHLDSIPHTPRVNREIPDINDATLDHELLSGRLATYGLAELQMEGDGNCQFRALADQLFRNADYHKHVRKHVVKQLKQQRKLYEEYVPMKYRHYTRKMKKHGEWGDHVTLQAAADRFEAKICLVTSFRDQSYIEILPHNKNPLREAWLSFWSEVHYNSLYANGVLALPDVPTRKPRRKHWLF
Chain of K48-tetraubiquitin chains (P0CG48 whole entry, looked up): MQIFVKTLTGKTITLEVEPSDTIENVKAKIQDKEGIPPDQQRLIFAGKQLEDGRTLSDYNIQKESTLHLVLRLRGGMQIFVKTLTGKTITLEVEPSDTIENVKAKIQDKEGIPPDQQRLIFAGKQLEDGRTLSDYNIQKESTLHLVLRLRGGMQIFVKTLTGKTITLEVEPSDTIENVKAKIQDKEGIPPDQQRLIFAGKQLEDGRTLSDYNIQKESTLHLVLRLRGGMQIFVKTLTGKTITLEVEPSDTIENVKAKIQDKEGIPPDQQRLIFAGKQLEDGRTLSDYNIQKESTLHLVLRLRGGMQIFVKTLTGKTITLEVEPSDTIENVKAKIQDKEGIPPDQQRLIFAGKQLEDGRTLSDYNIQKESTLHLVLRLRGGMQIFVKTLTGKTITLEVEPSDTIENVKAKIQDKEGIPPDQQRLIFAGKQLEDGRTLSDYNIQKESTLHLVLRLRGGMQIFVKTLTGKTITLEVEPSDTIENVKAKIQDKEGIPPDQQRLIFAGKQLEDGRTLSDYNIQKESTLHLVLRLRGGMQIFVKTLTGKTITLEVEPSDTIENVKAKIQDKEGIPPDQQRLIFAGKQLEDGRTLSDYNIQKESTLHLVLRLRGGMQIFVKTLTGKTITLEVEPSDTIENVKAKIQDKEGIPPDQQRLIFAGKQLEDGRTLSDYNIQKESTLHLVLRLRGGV
Chain of K63-tetraubiquitin chains (P0CG48 whole entry, looked up): as above

His-tagged OTU11a
-: [1] | [2] | [3] | [4] | [5] | [6] | [7] | [8]

OTU4d
-: [1] | [2] | [3] | [4] | [5] | [6] | [7] | [8]

His-tagged OTLD1a
-: [1] | [2] | [3] | [4] | [5] | [6] | [7] | [8]

His-tagged OTU12
-: [1] | [2] | [3] | [4] | [5] | [6] | [7] | [8]

His-tagged OTU5b
-: [1] | [2] | [3] | [4] | [5] | [6] | [7] | [8]
